Laboratory results taken from the Human Domainome abundance scans (Beltran et al. 2025).
± gives the uncertainty stated by the source.

B1: Intersectin-1, residues 909 to 971; numbered along this chain, Q15811 (parent)
chain: QGEKVEGLQAQALYPWRAKKDNHLNFNKNDVITVLEQQDMWWFGEVQGQKGWFPKSYVKLISG

Variants of: B1
Experiment: abundance fitness (aPCA) (normalised: wild type 0, dead -1); higher = more abundant; growth selection in yeast, the domain comes from the species named
Settings: Homo sapiens

Variant | abundance fitness
QGEKVEGLQAQALYPWRPKKDNHLNFNKNDVITVLEQQDMWWFGEVQGQKGWFPKSYVKLISG [A18P] | -0.034 ± 0.1
QGEKVEGLQAQALYPWRSKKDNHLNFNKNDVITVLEQQDMWWFGEVQGQKGWFPKSYVKLISG [A18S] | -0.058 ± 0.047
QGEKVEGLQAQALYPWRTKKDNHLNFNKNDVITVLEQQDMWWFGEVQGQKGWFPKSYVKLISG [A18T] | -0.065 ± 0.078
QGEKVEGLQAQALYPWRGKKDNHLNFNKNDVITVLEQQDMWWFGEVQGQKGWFPKSYVKLISG [A18G] | 0.043 ± 0.049
QGEKVEGLQAQALYPWRQKKDNHLNFNKNDVITVLEQQDMWWFGEVQGQKGWFPKSYVKLISG [A18Q] | -0.494 ± 0.15
QGEKVEGLQAQALYPWRVKKDNHLNFNKNDVITVLEQQDMWWFGEVQGQKGWFPKSYVKLISG [A18V] | -0.215 ± 0.052
QGEKVEGLQAQALYPWRLKKDNHLNFNKNDVITVLEQQDMWWFGEVQGQKGWFPKSYVKLISG [A18L] | -0.274 ± 0.065
QGEKVEGLQAQALYPWRRKKDNHLNFNKNDVITVLEQQDMWWFGEVQGQKGWFPKSYVKLISG [A18R] | -0.267 ± 0.072
QGEKVEGLQAQALYPWRNKKDNHLNFNKNDVITVLEQQDMWWFGEVQGQKGWFPKSYVKLISG [A18N] | -0.086 ± 0.065
QGEKVEGLQAQALYPWRYKKDNHLNFNKNDVITVLEQQDMWWFGEVQGQKGWFPKSYVKLISG [A18Y] | -0.365 ± 0.073
QGEKVEGLQAQALYPWRCKKDNHLNFNKNDVITVLEQQDMWWFGEVQGQKGWFPKSYVKLISG [A18C] | -0.189 ± 0.07
QGEKVEGLQAQALYPWRWKKDNHLNFNKNDVITVLEQQDMWWFGEVQGQKGWFPKSYVKLISG [A18W] | -0.362 ± 0.1
QGEKVEGLQAQALYPWRDKKDNHLNFNKNDVITVLEQQDMWWFGEVQGQKGWFPKSYVKLISG [A18D] | -0.109 ± 0.072
QGEKVEGLQAQALYPWRMKKDNHLNFNKNDVITVLEQQDMWWFGEVQGQKGWFPKSYVKLISG [A18M] | -0.09 ± 0.11
QGEKVEGLQAQALYPWRKKKDNHLNFNKNDVITVLEQQDMWWFGEVQGQKGWFPKSYVKLISG [A18K] | -0.059 ± 0.15
QGEKVEGLQAQALYPWREKKDNHLNFNKNDVITVLEQQDMWWFGEVQGQKGWFPKSYVKLISG [A18E] | -0.234 ± 0.12
QGEKVEGLQAQALYPWRAHKDNHLNFNKNDVITVLEQQDMWWFGEVQGQKGWFPKSYVKLISG [K19H] | -0.114 ± 0.064
QGEKVEGLQAQALYPWRAVKDNHLNFNKNDVITVLEQQDMWWFGEVQGQKGWFPKSYVKLISG [K19V] | 0.021 ± 0.043
QGEKVEGLQAQALYPWRAEKDNHLNFNKNDVITVLEQQDMWWFGEVQGQKGWFPKSYVKLISG [K19E] | 0 ± 0.084
QGEKVEGLQAQALYPWRATKDNHLNFNKNDVITVLEQQDMWWFGEVQGQKGWFPKSYVKLISG [K19T] | 0.033 ± 0.054
QGEKVEGLQAQALYPWRASKDNHLNFNKNDVITVLEQQDMWWFGEVQGQKGWFPKSYVKLISG [K19S] | 0.008 ± 0.042

Variant | abundance fitness
QGEKVEGLQAQALYPWRAPKDNHLNFNKNDVITVLEQQDMWWFGEVQGQKGWFPKSYVKLISG [K19P] | -0.139 ± 0.076
QGEKVEGLQAQALYPWRAIKDNHLNFNKNDVITVLEQQDMWWFGEVQGQKGWFPKSYVKLISG [K19I] | -0.028 ± 0.053
QGEKVEGLQAQALYPWRADKDNHLNFNKNDVITVLEQQDMWWFGEVQGQKGWFPKSYVKLISG [K19D] | 0.026 ± 0.058
QGEKVEGLQAQALYPWRANKDNHLNFNKNDVITVLEQQDMWWFGEVQGQKGWFPKSYVKLISG [K19N] | -0.055 ± 0.057
QGEKVEGLQAQALYPWRAYKDNHLNFNKNDVITVLEQQDMWWFGEVQGQKGWFPKSYVKLISG [K19Y] | -0.078 ± 0.056
QGEKVEGLQAQALYPWRAAKDNHLNFNKNDVITVLEQQDMWWFGEVQGQKGWFPKSYVKLISG [K19A] | -0.018 ± 0.052
QGEKVEGLQAQALYPWRAQKDNHLNFNKNDVITVLEQQDMWWFGEVQGQKGWFPKSYVKLISG [K19Q] | 0.069 ± 0.082
QGEKVEGLQAQALYPWRAFKDNHLNFNKNDVITVLEQQDMWWFGEVQGQKGWFPKSYVKLISG [K19F] | 0.032 ± 0.051
QGEKVEGLQAQALYPWRALKDNHLNFNKNDVITVLEQQDMWWFGEVQGQKGWFPKSYVKLISG [K19L] | -0.045 ± 0.045
QGEKVEGLQAQALYPWRACKDNHLNFNKNDVITVLEQQDMWWFGEVQGQKGWFPKSYVKLISG [K19C] | -0.048 ± 0.055
QGEKVEGLQAQALYPWRAKADNHLNFNKNDVITVLEQQDMWWFGEVQGQKGWFPKSYVKLISG [K20A] | 0.001 ± 0.049
QGEKVEGLQAQALYSWRAKKDNHLNFNKNDVITVLEQQDMWWFGEVQGQKGWFPKSYVKLISG [P15S] | 0.011 ± 0.12
QGEKVEGLQAQALYKWRAKKDNHLNFNKNDVITVLEQQDMWWFGEVQGQKGWFPKSYVKLISG [P15K] | -0.14 ± 0.23
QGEKVEGLQAQALYDWRAKKDNHLNFNKNDVITVLEQQDMWWFGEVQGQKGWFPKSYVKLISG [P15D] | -0.156 ± 0.17
QGEKVEGLQAQALYAWRAKKDNHLNFNKNDVITVLEQQDMWWFGEVQGQKGWFPKSYVKLISG [P15A] | 0.017 ± 0.11
QGEKVEGLQAQALYQWRAKKDNHLNFNKNDVITVLEQQDMWWFGEVQGQKGWFPKSYVKLISG [P15Q] | 0.052 ± 0.13
QGEKVEGLQAQALYEWRAKKDNHLNFNKNDVITVLEQQDMWWFGEVQGQKGWFPKSYVKLISG [P15E] | 0.054 ± 0.12
QGEKVEGLQAQALYNWRAKKDNHLNFNKNDVITVLEQQDMWWFGEVQGQKGWFPKSYVKLISG [P15N] | 0.087 ± 0.21
QGEKVEGLQAQALYRWRAKKDNHLNFNKNDVITVLEQQDMWWFGEVQGQKGWFPKSYVKLISG [P15R] | -0.018 ± 0.077
QGEKVEGLQAQALYYWRAKKDNHLNFNKNDVITVLEQQDMWWFGEVQGQKGWFPKSYVKLISG [P15Y] | -0.269 ± 0.22
QGEKVEGLQAQALYCWRAKKDNHLNFNKNDVITVLEQQDMWWFGEVQGQKGWFPKSYVKLISG [P15C] | -0.059 ± 0.18
